Laboratory results: the supplement of paper PMC10266784

B1: library; numbered along this chain (parent)
chain: MAAAAAAAAEQQSSNGPVKKSMREKAVERRSVNKEHNSNFKAGYIPIDEDRLHKTGLRGRKGNLAICVIILLFILAVINLIITLVIWAVIRIGPNGCDSMEFHESGLLRFKQVSDMGVIHPLYKSTVGGRRNENLVITGNNQPIVFQQGTTKLSVENNKTSITSDIGMQFFDPRTQNILFSTDYETHEFHLPSGVKSLNVQKASTERITSNATSDLNIKVDGRAIVRGNEGVFIMGKTIEFHMGGNMELKAENSIILNGSVMVSTTRLPSSSSGDQLGSGDWVRYKLCMCADGTLFKVQVTSQNMGCQISDNPCGNTH

Variants of: B1
Assay: SGCB cell-surface expression functional score (HA stain, bin4 vs bin1, normalised to synonymous) (log10 ratio); higher = more cell-surface SGCB (functional)
Protocol: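 Deep mutational scan of full-length human SGCB (YFP-SGCB-HA, NNN codon sublibraries A-F) delivered by lentivirus at low MOI into ADG-HEK293 cells stably expressing SGCA, SGCD and SGCG. YFP-positive cells were stained for surface HA on unpermeabilized cells and FACS-sorted into bins. The functional score is log10(frequency in high bin 4 / frequency in low bin 1), normalised per chunk so that synonymous variants have mean 0 and SD 0.5. Scores are the median over codons and over duplicate biological replicates; scores below -0.5 are called non-functional. Scale: negative means deleterious.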

SGCB cell-surface expression functional score (log10): each site, then its substitutions
S38: I -0.09 | Q -0.18 | M -0.54 | A -0.36 | E 0.31 | N 0.37 | G 0.07 | W -0.17 | D 0.3 | P -0.2 | H 0.06 | C -0.16 | K 0.36 | R -0.01 | V -0.31 | L -0.26 | Y -0.07 | T -0.04 | F -0.14
R29: F -0.17 | V -0.29 | S 0.25 | K -0.66 | Y 0.23 | N 0.21 | G 0.3 | C 0.5 | D -0.22 | L -0.3 | P 0.32 | A 0.46 | Q 0.16 | I 0.13 | W 0.21 | E 0.41 | M -0.81 | T -0.04 | H -0.15
N37: P -0.1 | V -0.13 | I 0.02 | C 0.35 | T -0.11 | F -0.14 | R -0.21 | D -0.35 | E 0.3 | K -0.39 | W -0.53 | A 0.08 | H 0.41 | M -0.37 | S -0.21 | L 0.05 | Q -0.21 | G -0.15 | Y -0.46
K41: N 0.25 | Y -0.07 | W 0.02 | C -0.2 | A 0.77 | Q 0.4 | M 0.55 | I -0.28 | V 0.04 | D -0.08 | G -0.27 | S 0.28 | P 0.21 | E 0.61 | H 0.22 | L 0.1 | T 0.26 | F -0.47 | R -0.25
K34: L 0.21 | A -0.03 | Q -0.08 | F -0.14 | P 0.25 | H 0.6 | S 0.52 | T 0.27 | N -0.07 | M -0.24 | V 0.44 | D 0.26 | R 0.1 | W 0.11 | E 0.34 | I -0.05 | C 0.33 | G 0.01 | Y 0.56
V32: F -0.5 | A 0.26 | L -0.06 | P 0.11 | K -0.04 | I 0.36 | R 0.37 | M -0.13 | W -0.05 | N 0.67 | H 0.35 | Y -0.45 | T -0.08 | D 0.47 | C 0.14 | Q -0.03 | S 0.11 | E -0.59 | G 0.1
N39: W -0.81 | D 0.41 | M -0.61 | H -0.1 | C 0.2 | V 0.44 | I -0.18 | S 0.02 | Q 0.07 | A -0.05 | K 0.08 | G 0.13 | Y -0.08 | R -0.29 | T -0.1 | L -0.02 | E 0.54 | P -0.17 | F -0.12
N33: C -0.01 | T -0.07 | E 0.11 | W -0.14 | R 0.1 | I 0.03 | S -0.01 | L -0.11 | Q -0.23 | F 0.1 | A 0.36 | M 0.11 | H 0.48 | Y 0.04 | V 0.23 | K 0.24 | D 0.4 | P 0.04 | G 0.33
A42: H -0.08 | T 0.1 | L -0.02 | P 0.02 | Y -0.17 | E 0.71 | G 0.22 | M 0.33 | N -0.67 | S 0.1 | V -0.08 | Q -0.07 | W 0.29 | C 0.21 | R -0.08 | F -0.42 | K 0.18 | D -0.28 | I -0.45
Y44: G 0.59 | S 0.14 | T 0.39 | N -0.24 | W 0.07 | I 0.42 | R 0.08 | E 0.75 | V 0.64 | A 0.04 | C 0.8 | M 0.39 | Q 0.8 | D 0.53 | L 0.55 | P 0.61 | F 0.02 | K 0.04 | H 0.01
F40: D 0.12 | Q 0.03 | I 0.24 | W -0.21 | M -0.28 | T 0.19 | H -0.44 | Y 0.49 | S 0.16 | C 0.25 | K 0.55 | P -0.13 | G -0.49 | A 0.18 | R -0.05 | L -0.13 | N -0.16 | V 0.27 | E 0.01
G43: P 0.76 | R 0.51 | K 0.2 | C -0.02 | W 0.34 | Q 0.32 | M -0.74 | L -0.21 | I -0.07 | S 0.34 | Y -0.59 | H 0.33 | A 0.25 | N 0.18 | D 0.22 | F -0.52 | E 0.18 | V 0.07 | T 0.05
E35: K 0.23 | P -0.21 | Q -0.06 | F -0.1 | R 0.18 | I 0.08 | T 0.06 | M 0.1 | V 0.1 | W 0.28 | N 0.01 | C -0.07 | H 0.32 | S 0.03 | D 0.11 | L -0.2 | Y 0.26 | G 0.11 | A 0.3
E28: L 0.05 | R 0.1 | K -0.15 | N -0.09 | D -0.25 | Q 0 | C 0.35 | S 0.21 | H -0.19 | F 0.2 | G -0.33 | T 0.1 | M 0.57 | P 0.08 | W -0.12 | V 0.15 | A -0.15 | I 0.42 | Y 0.37
S31: G 0.19 | P 0.13 | M -0.69 | R -0.03 | E 0.24 | Q -0.35 | D 0.16 | I 0.39 | L 0.11 | W 0.21 | F -0.24 | T 0.06 | C 0.19 | N 0.37 | Y -0.26 | K 0.25 | V 0.19 | A -0.25 | H 0.19
H36: V 0.28 | A 0.35 | G 0.11 | K 0.53 | R -0.04 | Q 0.22 | F -0.16 | C -0.16 | E 0.05 | L -0.04 | N 0.25 | I 0.09 | D 0.26 | P 0.32 | M -0.06 | S 0.21 | Y 0.15 | W -0.09 | T -0.13
R30: L 0.15 | I -0.19 | E 0.42 | T 0.19 | Q 0.15 | Y -0.56 | W 0.33 | C 0.31 | N 0.64 | S 0.04 | V -0.05 | D 0.85 | H -0.02 | F 0.27 | G 0.59 | A 0.22 | M -0.06 | K 0.16 | P -0.15
I45: A 0.33 | K -0.41 | L -0.03 | E 0.23 | C -0.09 | F -0.02 | D 0.9 | G -0.04 | H 0.03
V27: W 0.1 | Y 0.26
